{
  "source": "paper PMC6274998",
  "about": "“Mycobacterium tuberculosis ClpC1 N-Terminal Domain Is Dispensable for Adaptor Protein-Dependent Allosteric Regulation” (International Journal of Molecular Sciences, 2018)",
  "molecules": {"B1": {"name": "Mycobacterium tuberculosis ClpS (His6-SUMO tag removed) (natural protein)", "chain": "MAVVSAPAKPGTTWQRESAPVDVTDRAWVTIVWDDPVNLMSYVTYVFQKLFGYSEPHATKLMLQVHNEGKAVVSAGSRESMEVDVSKLHAAGLWATMQQDR"}, "B2": {"name": "His6-SUMO-ClpS (Mycobacterium tuberculosis ClpS adaptor protein, His6-SUMO fusion) (natural protein)", "chain": "MAVVSAPAKPGTTWQRESAPVDVTDRAWVTIVWDDPVNLMSYVTYVFQKLFGYSEPHATKLMLQVHNEGKAVVSAGSRESMEVDVSKLHAAGLWATMQQDR", "notes": "also called His6-ClpS; His6-tagged ClpS; not shown: His6, N-terminal, kept; SUMO, N-terminal, kept"}},
  "key": {"[1]": {"target": "ClpS (additional molecules) (Escherichia coli) (UniProt P0A8Q6)", "sequence (P0A8Q6 whole entry)": "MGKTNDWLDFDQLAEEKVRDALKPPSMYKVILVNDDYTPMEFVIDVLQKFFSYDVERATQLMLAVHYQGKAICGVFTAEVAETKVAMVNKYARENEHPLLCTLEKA", "details": "cited from earlier work"}, "[2]": {"target": "ClpS (Escherichia coli) (UniProt P0A8Q6)", "sequence (P0A8Q6 whole entry)": "as above", "details": "cited from earlier work"}, "[3]": {"target": "full-length Mycobacterium tuberculosis ClpC1 (Mycobacterium tuberculosis H37Rv) (UniProt P9WPC9)", "sequence (P9WPC9 whole entry)": "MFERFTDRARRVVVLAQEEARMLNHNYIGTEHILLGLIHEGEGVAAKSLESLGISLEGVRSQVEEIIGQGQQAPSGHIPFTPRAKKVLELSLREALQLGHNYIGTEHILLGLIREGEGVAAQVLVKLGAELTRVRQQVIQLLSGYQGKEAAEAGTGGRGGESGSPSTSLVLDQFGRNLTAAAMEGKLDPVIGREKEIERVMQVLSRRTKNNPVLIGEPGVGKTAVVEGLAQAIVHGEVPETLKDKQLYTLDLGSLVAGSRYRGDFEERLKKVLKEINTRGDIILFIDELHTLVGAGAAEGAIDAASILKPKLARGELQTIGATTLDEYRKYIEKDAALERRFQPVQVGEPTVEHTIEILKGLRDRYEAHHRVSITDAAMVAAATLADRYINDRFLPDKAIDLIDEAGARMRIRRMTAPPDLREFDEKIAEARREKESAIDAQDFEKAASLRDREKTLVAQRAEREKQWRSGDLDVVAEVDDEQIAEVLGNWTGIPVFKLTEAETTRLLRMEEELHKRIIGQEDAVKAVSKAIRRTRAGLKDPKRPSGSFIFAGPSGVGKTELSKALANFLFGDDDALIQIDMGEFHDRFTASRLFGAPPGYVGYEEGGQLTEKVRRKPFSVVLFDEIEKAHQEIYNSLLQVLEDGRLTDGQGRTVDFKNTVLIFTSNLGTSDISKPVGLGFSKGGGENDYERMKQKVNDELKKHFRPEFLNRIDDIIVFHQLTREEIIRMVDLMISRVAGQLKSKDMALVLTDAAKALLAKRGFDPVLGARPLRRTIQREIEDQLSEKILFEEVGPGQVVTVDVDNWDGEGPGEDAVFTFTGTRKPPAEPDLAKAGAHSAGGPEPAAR"}, "[4]": {"target": "T1, full-length Mycobacterium tuberculosis ClpC1 (Mycobacterium tuberculosis H37Rv, UniProt P9WPC9 1-848)", "T1 construct": "ClpC1 AAA+ ATPase, M. tuberculosis H37Rv, Rv3596c, full length; also called wild-type M. tuberculosis ClpC1; Full-Length ClpC1; not shown: His6-SUMO, N-terminal, cleaved", "T1 sequence (P9WPC9 whole entry)": "as above", "assay": "pull-down", "details": "both partners purified"}},
  "data": [
    {"molecule": "ClpA (from UniProt P0ABH9)", "values": [
      {"measurement": "Kd", "setting": "[1]", "result": "> 700", "unit": "nM"},
      {"measurement": "Kd", "setting": "[2]", "result": 40, "unit": "nM"}
    ]},
    {"molecule": "B1", "values": [
      {"measurement": "average binding stoichiometry inferred from k (UF,app) against [ClpS]T/[ClpC1]T, stopped-flow unfolding of SsrA-KaedeRed (ClpC1 subunits per ClpS)", "setting": "[3]", "result": 2},
      {"measurement": "inflection point of k (UF,app) against the ratio of total ClpS to total ClpC1 monomer concentration, stopped-flow unfolding of SsrA-KaedeRed ([ClpS]T/[ClpC1]T)", "setting": "[3]", "result": 0.65}
    ]},
    {"molecule": "B2", "values": [
      {"measurement": "binding result", "setting": "[4]", "result": "binds"}
    ]}
  ]
}
